T1: human α2A adrenergic receptor (human, UniProt P08913 1-465)
T1 sequence (looked up): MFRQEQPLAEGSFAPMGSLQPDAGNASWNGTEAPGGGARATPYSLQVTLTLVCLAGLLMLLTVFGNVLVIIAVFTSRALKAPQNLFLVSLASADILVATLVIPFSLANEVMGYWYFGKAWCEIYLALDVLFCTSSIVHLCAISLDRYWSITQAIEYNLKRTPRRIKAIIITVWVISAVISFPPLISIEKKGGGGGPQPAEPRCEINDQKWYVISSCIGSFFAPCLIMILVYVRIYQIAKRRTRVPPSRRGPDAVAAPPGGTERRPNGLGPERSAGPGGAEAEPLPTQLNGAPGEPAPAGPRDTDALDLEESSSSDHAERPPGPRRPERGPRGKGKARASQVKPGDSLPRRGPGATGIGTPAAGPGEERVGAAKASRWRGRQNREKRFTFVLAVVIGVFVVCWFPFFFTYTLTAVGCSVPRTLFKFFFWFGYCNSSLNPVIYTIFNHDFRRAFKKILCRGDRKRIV

T2: human Y2 receptor (human, UniProt P49146 1-381)
T2 sequence (looked up): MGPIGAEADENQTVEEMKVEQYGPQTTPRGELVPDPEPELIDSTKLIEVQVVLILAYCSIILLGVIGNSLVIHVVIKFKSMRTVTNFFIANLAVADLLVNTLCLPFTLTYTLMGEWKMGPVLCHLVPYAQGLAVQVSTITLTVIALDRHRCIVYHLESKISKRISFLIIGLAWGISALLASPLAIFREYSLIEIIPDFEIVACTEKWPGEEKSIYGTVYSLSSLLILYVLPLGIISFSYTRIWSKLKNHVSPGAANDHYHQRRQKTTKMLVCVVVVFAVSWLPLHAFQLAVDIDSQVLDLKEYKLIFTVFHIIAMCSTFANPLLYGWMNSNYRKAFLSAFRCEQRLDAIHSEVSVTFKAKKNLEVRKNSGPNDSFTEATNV

T3: human GALR2 receptor (human, UniProt O43603 1-387)
T3 sequence (looked up): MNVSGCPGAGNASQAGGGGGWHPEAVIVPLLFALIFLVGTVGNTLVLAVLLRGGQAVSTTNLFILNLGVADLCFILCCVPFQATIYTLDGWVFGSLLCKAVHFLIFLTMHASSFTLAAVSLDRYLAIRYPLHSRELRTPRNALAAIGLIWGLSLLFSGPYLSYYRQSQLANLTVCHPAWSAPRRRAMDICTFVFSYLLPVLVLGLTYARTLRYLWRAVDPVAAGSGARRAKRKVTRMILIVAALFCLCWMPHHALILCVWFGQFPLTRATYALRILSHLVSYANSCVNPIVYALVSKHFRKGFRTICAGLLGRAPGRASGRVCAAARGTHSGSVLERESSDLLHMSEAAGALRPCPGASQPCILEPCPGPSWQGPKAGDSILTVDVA

T4: human 5HT1A receptor (human, UniProt P08908 1-422)
T4 sequence (looked up): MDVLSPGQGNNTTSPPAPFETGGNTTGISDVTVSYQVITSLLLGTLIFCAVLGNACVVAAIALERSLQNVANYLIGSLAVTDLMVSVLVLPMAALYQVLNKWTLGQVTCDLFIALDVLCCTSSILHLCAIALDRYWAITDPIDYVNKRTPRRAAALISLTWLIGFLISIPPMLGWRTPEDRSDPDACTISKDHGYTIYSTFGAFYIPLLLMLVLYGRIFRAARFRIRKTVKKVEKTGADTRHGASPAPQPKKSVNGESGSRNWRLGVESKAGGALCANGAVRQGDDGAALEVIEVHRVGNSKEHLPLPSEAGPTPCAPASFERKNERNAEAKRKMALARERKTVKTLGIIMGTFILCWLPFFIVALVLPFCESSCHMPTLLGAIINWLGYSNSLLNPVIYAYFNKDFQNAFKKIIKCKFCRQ

T5: human α2C adrenergic receptor (human, UniProt P18825 1-462)
T5 sequence (looked up): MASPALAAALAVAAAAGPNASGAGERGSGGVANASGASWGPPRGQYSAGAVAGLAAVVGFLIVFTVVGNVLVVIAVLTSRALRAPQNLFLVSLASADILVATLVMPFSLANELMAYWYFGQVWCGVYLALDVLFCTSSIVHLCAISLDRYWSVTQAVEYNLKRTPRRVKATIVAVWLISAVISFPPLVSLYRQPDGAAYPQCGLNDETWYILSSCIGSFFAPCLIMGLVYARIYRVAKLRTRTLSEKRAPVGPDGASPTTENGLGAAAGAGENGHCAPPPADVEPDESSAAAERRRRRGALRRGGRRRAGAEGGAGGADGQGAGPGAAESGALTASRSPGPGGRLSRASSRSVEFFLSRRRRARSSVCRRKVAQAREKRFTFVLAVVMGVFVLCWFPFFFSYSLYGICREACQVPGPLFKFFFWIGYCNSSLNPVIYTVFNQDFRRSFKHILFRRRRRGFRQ


Columns and labels:
Assay in all cases: cell-based or functional assay
[1] = target: T1, human α2A adrenergic receptor
human GLP-1 receptor = human GLP-1 receptor (human, UniProt P43220 24-463)
human Y2 receptor = target: T2, human Y2 receptor
human NPFF1 receptor = human NPFF1 receptor (human, UniProt Q9GZQ6 1-430)
human 5HT1E receptor = human 5HT1E receptor (human, UniProt P28566 1-365)
human GALR2 receptor = target: T3, human GALR2 receptor
human 5HT1A receptor = target: T4, human 5HT1A receptor
[2] = target: T5, human α2C adrenergic receptor
human MCH receptor = human MCH receptor (human, UniProt Q99705 1-353)
human 5HT1B receptor = human 5HT1B receptor (human, UniProt P28222 1-390)
rat NTR1 receptor = rat NTR1 receptor (rat, UniProt P20789 1-424)
human 5HT4 receptor = human 5HT4 receptor (human, UniProt Q13639 1-388)
human NPFF2 receptor = human NPFF2 receptor (human, UniProt Q9Y5X5 1-522)
human Y4 receptor = human Y4 receptor (human, UniProt P50391 1-375)
human Y4 receptor, sequence (P50391 whole entry): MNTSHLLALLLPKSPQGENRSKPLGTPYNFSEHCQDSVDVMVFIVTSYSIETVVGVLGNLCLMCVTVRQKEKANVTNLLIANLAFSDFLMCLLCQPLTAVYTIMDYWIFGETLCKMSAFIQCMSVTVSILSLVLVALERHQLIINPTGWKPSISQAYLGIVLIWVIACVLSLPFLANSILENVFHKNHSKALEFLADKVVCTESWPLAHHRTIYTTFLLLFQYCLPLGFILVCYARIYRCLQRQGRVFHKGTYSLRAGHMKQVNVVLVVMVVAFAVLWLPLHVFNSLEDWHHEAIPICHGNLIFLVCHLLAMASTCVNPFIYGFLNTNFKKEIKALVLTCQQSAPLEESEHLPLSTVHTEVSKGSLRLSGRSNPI

rat NTR1 receptor, sequence (P20789 whole entry): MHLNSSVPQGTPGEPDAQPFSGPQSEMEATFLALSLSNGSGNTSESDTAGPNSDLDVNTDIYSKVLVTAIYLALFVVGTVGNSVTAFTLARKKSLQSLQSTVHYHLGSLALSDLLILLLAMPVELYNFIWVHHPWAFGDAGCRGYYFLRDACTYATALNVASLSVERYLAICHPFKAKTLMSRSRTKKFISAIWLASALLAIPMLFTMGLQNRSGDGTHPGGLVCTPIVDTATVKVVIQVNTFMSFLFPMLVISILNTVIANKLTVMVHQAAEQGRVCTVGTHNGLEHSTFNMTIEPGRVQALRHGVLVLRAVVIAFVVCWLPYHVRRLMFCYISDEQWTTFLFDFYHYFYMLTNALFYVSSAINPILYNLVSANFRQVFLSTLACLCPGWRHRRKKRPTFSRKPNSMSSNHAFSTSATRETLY
human 5HT1B receptor, sequence (P28222 whole entry): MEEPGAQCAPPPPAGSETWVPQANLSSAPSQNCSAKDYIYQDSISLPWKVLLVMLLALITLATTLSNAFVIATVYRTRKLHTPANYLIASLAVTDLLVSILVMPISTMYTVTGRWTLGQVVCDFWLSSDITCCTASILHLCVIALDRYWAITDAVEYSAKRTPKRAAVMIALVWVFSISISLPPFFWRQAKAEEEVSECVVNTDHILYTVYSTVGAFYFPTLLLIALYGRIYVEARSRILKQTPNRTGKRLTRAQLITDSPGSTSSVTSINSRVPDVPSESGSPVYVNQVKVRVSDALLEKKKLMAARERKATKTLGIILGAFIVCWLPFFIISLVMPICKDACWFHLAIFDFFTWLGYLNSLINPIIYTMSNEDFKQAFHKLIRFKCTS
human 5HT1E receptor, sequence (P28566 whole entry): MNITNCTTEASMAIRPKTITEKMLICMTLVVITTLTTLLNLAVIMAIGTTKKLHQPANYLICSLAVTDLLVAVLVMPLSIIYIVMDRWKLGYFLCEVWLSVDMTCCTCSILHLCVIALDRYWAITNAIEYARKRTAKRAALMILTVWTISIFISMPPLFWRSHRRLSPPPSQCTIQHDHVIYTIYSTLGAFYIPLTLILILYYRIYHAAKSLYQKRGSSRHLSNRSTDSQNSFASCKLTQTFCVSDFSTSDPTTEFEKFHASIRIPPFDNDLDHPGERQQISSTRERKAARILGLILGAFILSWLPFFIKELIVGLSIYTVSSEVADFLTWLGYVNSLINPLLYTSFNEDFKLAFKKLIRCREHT
human 5HT4 receptor, sequence (Q13639 whole entry): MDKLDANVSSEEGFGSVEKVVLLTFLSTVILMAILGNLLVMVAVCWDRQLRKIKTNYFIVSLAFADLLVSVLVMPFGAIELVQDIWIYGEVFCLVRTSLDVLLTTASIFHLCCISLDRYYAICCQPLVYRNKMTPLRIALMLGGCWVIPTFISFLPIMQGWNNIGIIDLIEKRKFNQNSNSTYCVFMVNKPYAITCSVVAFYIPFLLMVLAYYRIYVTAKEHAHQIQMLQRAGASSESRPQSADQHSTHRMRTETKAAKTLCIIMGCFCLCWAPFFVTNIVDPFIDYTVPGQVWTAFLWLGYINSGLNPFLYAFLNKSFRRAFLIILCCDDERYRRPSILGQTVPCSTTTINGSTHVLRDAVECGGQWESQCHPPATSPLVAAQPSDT
human NPFF2 receptor, sequence (Q9Y5X5 whole entry): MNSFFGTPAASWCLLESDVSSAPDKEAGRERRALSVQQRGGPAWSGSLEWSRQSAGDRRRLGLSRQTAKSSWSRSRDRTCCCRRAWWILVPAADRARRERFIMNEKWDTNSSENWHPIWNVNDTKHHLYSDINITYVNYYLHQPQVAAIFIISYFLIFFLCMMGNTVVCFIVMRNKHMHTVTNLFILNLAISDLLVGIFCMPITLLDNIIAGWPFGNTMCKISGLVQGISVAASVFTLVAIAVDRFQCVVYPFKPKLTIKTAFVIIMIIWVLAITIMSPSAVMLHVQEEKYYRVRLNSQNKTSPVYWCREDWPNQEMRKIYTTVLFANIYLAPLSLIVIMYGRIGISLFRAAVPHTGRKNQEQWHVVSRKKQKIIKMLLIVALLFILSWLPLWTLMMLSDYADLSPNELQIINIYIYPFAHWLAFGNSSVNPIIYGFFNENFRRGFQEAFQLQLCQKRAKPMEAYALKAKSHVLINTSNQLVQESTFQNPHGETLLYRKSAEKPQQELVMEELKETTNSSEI
human NPFF1 receptor, sequence (Q9GZQ6 whole entry): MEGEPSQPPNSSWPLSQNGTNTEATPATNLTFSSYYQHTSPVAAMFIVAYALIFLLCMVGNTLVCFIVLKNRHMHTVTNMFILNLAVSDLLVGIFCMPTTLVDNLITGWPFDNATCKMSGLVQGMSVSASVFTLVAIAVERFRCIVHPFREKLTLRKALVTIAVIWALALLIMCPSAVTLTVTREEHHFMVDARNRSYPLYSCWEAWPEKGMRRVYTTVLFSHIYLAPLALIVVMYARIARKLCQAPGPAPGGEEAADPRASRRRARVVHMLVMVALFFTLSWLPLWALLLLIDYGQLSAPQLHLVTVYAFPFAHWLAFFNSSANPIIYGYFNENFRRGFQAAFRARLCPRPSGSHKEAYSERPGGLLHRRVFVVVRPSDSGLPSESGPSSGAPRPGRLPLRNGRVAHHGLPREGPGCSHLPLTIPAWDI
human MCH receptor, sequence (Q99705 whole entry): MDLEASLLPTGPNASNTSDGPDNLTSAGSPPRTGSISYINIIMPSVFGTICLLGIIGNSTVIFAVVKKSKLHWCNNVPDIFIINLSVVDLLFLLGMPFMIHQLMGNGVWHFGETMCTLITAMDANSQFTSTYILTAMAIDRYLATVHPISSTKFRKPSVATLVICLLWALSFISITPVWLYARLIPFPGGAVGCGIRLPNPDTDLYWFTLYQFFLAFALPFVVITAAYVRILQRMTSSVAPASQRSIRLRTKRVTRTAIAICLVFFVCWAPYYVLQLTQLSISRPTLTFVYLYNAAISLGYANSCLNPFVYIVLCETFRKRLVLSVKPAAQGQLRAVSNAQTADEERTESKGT

Binder | max Ca2+ signal, COS-7, FLIPR; agonist NE [1] [fluorescence units] | max Ca2+ signal, COS-7, FLIPR; agonist GLP-1 (human GLP-1 receptor) [fluorescence units] | max Ca2+ signal, COS-7, FLIPR; agonist NPY (human Y2 receptor) [fluorescence units] | max Ca2+ signal, COS-7, FLIPR; agonist NPFF (human NPFF1 receptor) [fluorescence units] | max Ca2+ signal, COS-7, FLIPR; agonist 5HT (human 5HT1E receptor) [fluorescence units] | max Ca2+ signal, COS-7, FLIPR; agonist GAL (human GALR2 receptor) [fluorescence units] | max Ca2+ signal, COS-7, FLIPR; agonist 5HT (human 5HT1A receptor) [fluorescence units] | max Ca2+ signal, COS-7, FLIPR; agonist NE [2] [fluorescence units] | max Ca2+ signal, COS-7, FLIPR; agonist MCH (human MCH receptor) [fluorescence units] | max Ca2+ signal, COS-7, FLIPR; agonist 5HT (human 5HT1B receptor) [fluorescence units] | max Ca2+ signal, COS-7, FLIPR; agonist NT (rat NTR1 receptor) [fluorescence units] | max Ca2+ signal, COS-7, FLIPR; agonist 5HT (human 5HT4 receptor) [fluorescence units] | max Ca2+ signal, COS-7, FLIPR; agonist NPFF (human NPFF2 receptor) [fluorescence units] | max Ca2+ signal, COS-7, FLIPR; agonist PP (human Y4 receptor) [fluorescence units]
Human Gαq/z5 (Ala→Ser substitution at position 171) (other) MTLESIMACCLSEEAKEARRINDEIERQLRRDKRDARRELKLLLLGTGESGKSTFIKQMRIIHGSGYSDEDKRGFTKLVYQNIFTAMQAMIRAMDTLKIPYKYEHNKAHAQLVREVDVEKVSAFENPYVDAIKSLWNDPGIQECYDRRREYQLSDSTKYYLNDLDRVADPSYLPTQQDVLRVRVPTTGIIEYPFDLQSVIFRMVDVGGQRSERRKWIHCFENVTSIMFLVALSEYDQVLVESDNENRMEESKALFRTIITYPWFQNSSVILFLNKKDLLEEKIMYSHLVDYFPEYDGPQRDAQAAREFILKMFVDLNPDSDKIIYSHFTCATDTENIRFVFAAVKDTILQLNLKYIGLC | 10900 | 287 | 10900 | 4720 | 202 | 5990 | 478 | 6110 | 783 | 405 | 11200 | 2160 | 20000 | 9970
C. elegans Gαq/z5 (other) MACCLSEEAREQKRINQEIEKQLQRDKRNARRELKLLLLGTGESGKSTFIKQMRIIHGQGYSEEDKRAHIRLVYQNVFMAIQSMIRAMDTLDIKFGNESEELQEKAAVVREVDFESVTSFEEPYVSYIKELWEDSGIQECYDRRREYQLTDSAKYYLSDLRRLAVPDYLPTEQDILRVRVPTTGIIEYPFDLEQIIFRMVDVGGQRSERRKWIHCFENVTSIMFLVALSEYDQVLVECDNENRMEESKALFRTIITYPWFTNSSVILFLNKKDLLEEKILYSHLADYFPEYDGPPRDPIAAREFILKMFVDLNPDADKIIYSHFTCATDTENIRFVFAAVKDTILQHNLKYIGLC | 7580 | 131 | 7710 | 6590 | 229 | 5470 | 2000 | 4140 | 2700 | 929 | 14500 | 1010 | 7570 | 9420
C. elegans Gαq/z9 (other) MACCLSEEAREQKRINQEIEKQLQRDKRNARRELKLLLLGTGESGKSTFIKQMRIIHGQGYSEEDKRAHIRLVYQNVFMAIQSMIRAMDTLDIKFGNESEELQEKAAVVREVDFESVTSFEEPYVSYIKELWEDSGIQECYDRRREYQLTDSAKYYLSDLRRLAVPDYLPTEQDILRVRVPTTGIIEYPFDLEQIIFRMVDVGGQRSERRKWIHCFENVTSIMFLVALSEYDQVLVECDNENRMEESKALFRTIITYPWFTNSSVILFLNKKDLLEEKILYSHLADYFPEYDGPPRDPIAAREFILKMFVDLNPDADKIIYSHFTCATDTENIRFVFAAVKDTILQNNLKYIGLC | 3040 | 135 | 5390 | 2970 | 238 | 4900 | 3140 | 3870 | 3330 | 1220 | 6110 | 1700 | 4580 | 7400

Source: US7067277 (H LUNDBECK A S, dated 2006)
